Numbered stars: 1 amine (or outer) side, 2 acyl side, 3 side chain; on linkers, the order of the positions; unused ones are H or OH. Bridge positions count the residues as written; N and C are the ends. Square brackets hold non-standard residues; d marks the D form. Primed or numbered codes have the meaning given here. MB(3) = Monomer B = PyrS, pyrrolidine stapling residue with allyl carbamate; MI = Monomer I = ReN, acyclic amine-bearing olefin stapling residue; R6 = (R)-2-(5-hexenyl)alanine, C=CCCCC[C@@](C)(N[*:1])C(=O)[*:2]; S6 = (S)-2-(5-hexenyl)alanine, C=CCCCC[C@](C)(N[*:1])C(=O)[*:2]; R4 = (R)-2-(3-butenyl)alanine, C=CCC[C@@](C)(N[*:1])C(=O)[*:2]; MG = Monomer G = RdN, acyclic alkyl-N(Alloc) stapling residue; MC = Monomer C = PyrR, Alloc-pyrrolidine stapling residue; MA = Monomer A (Az), N-Alloc azetidine stapling residue; S7 = C[C@@](CCCCCC=[*:3])(N[*:1])C(=O)[*:2]; R5 = C=CCCC[C@@](C)(N)C(=O)O; S5 = C=CCCC[C@](C)(N)C(=O)O
T1: full-length beta-catenin (UniProt P35222 2-781, limits assumed)
T1 construct: mature; also called full-length ß-Catenin; β-catenin
T1 sequence (looked up): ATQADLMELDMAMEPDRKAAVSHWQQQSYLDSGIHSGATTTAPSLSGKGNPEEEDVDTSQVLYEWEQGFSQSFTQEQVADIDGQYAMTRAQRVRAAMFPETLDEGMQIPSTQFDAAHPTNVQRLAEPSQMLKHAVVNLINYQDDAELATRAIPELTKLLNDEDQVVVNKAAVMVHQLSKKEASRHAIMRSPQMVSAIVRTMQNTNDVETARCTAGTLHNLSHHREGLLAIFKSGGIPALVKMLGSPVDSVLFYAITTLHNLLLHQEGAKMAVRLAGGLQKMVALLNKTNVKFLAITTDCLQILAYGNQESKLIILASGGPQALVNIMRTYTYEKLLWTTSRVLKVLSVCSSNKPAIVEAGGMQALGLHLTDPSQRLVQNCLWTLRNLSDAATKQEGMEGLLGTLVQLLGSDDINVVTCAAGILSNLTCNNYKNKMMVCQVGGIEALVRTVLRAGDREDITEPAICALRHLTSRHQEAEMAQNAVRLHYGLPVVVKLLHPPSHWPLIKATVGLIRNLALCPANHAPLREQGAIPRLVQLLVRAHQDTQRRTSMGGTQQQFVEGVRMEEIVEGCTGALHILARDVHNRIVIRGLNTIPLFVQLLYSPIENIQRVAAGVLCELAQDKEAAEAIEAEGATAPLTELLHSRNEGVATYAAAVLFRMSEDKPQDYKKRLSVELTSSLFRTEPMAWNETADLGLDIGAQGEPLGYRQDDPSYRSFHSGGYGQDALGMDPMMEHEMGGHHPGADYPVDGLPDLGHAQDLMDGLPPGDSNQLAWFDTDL

B1: FP0778c (peptide)
peptide: Ac-PQ[MD]ILD[S5]HVRRVWR-NH2
modifications: staple 3-7; not fully specified; also: carbamate staple (-N(R')-C(O)-O-) by ring-closing olefin metathesis
B2: FP0777c (peptide)
peptide: Ac-PQ[R5]ILD[MI]HVRRVWR-NH2
modifications: staple 3-7; also: carbamate staple (-N(R')-C(O)-O-) by ring-closing olefin metathesis
B3: FP0776c (peptide)
peptide: Ac-PQ[R5]ILD[MG]HVRRVWR-NH2
modifications: staple 3-7; also: carbamate staple (-N(R')-C(O)-O-) by ring-closing olefin metathesis
B4: FP0779c (peptide)
peptide: Ac-PQ[MF]ILD[S5]HVRRVWR-NH2
modifications: staple 3-7; also: carbamate staple (-N(R')-C(O)-O-) by ring-closing olefin metathesis
B5: FP0783c (peptide)
peptide: Ac-PQ[MI]ILD[R5]HVRRVWR-NH2
modifications: staple 3-7; also: carbamate staple (-N(R')-C(O)-O-) by ring-closing olefin metathesis
B6: FP0780c (peptide)
peptide: Ac-PQ[MH]ILD[S5]HVRRVWR-NH2
modifications: staple 3-7; also: carbamate staple (-N(R')-C(O)-O-) by ring-closing olefin metathesis

Target: T1, full-length beta-catenin
Assay: competition FP
Experimental: (§1) In some embodiments, a competition fluorescence polarization assay is used to assess binding of provided compounds to beta-catenin. In an exemplary procedure, solutions of provided compounds, e.g., provided stapled peptides, were prepared in a buffer (e.g., 50 mM Tris pH 8.0, 250 mM NaCl, 2% glycerol, 0.5 mM EDTA, 0.02% w/v sodium azide) using a 3-fold serial dilution from 5 µM. Probe solution (15 nM full-length ß-Catenin, 20 nM FITC labeled peptide in buffer) was prepared and incubated for a period of time, e.g., 5 minutes, and the a volume, e.g., 40 µL per well plated in suitable plate, e.g., a black polystyrene 384-well plate (Corning). Equal volume of the serial diluted peptide was added to the plate and incubated protected from light for 15 minutes prior to read. Reads were performed on a Spectramax M5 (Molecular Devices) in duplicate. Suitable probe was FITC-PEG1-PQ-S5-ILD-S5-HVRRVWR (SEQ ID NO: 1) (hydrocarbon staple formed by two S5 via olefin metathesis) and/or FITC-bA-PQ-S5-ILD-S5-HVRRVWR (SEQ ID NO: 3) (hydrocarbon staple formed by two S5 via olefin metathesis). […] Another peptide, FPO217c (Ac-AR_8ILDAHIM$B5$RVW (SEQ ID NO: 280), with N-terminal proline removed and valine replaced with isoleucine compared to FP0025c) was prepared.

Row | EC50 [nM] | Binder
1 | 1600 | Ac-PQ[R6]ILD[MA]HVRRVWR-NH2 (staple 3-7) [FP0735c]
2 | 1000 | B1
3 | 560 | B2
4 | 740 | Ac-PQ[MC]ILD[R5]HVRRVWR-NH2 (staple 3-7) [FP0743c]
5 | 20 | Ac-PQ[R5]ILD[MC]HVRRVWR-NH2 (staple 3-7, also called R5/PR) [FP0766c]
6 | 570 | B3
7 | 890 | Ac-PQ[S6]ILD[MA]HVRRVWR-NH2 (staple 3-7) [FP0736c]
8 | 2600 | Ac-PQ[MB(3)]ILD[S6]HVRRVWR-NH2 (staple 3-7) [FP0752c]
9 | 1300 | B4
10 | 80 | Ac-PQ[MA]ILD[R6]HVRRVWR-NH2 (staple 3-7, also called Az/R6) [FP0725c]
11 | 990 | B5
12 | 1700 | B6
13 | 2700 | Ac-PQ[R5]ILD[MB(3)]HVRRVWR-NH2 (staple 3-7) [FP0758c]
14 | 2000 | Ac-PQ[MB(3)]ILD[S5]HVRRVWR-NH2 (staple 3-7) [FP0751c]
15 | 30 | Ac-PQ[R4]ILD[MC]HVRRVWR-NH2 (staple 3-7, also called R4/PR) [FP0765c]
16 | 1800 | Ac-PQ[S7]ILD[MA]HVRRVWR-NH2 (staple 3-7) [FP0738c]

Target: T1, full-length beta-catenin
Assay: competition FP, grade of FP EC50 (+++: <=100 nM)
Experimental: as §1

Row | FP EC50 [nM] | Binder
17 | ≤ 100 | Ac-PQ[R5]ILD[MC]HVRRVWR-NH2 (staple 3-7, also called R5/PR) [FP0766c]
18 | ≤ 100 | Ac-PQ[MA]ILD[R6]HVRRVWR-NH2 (staple 3-7, also called Az/R6) [FP0725c]
19 | ≤ 100 | Ac-PQ[R4]ILD[MC]HVRRVWR-NH2 (staple 3-7, also called R4/PR) [FP0765c]

Target: T1, full-length beta-catenin
Assay: competition FP, grade of FP EC50 (+: 500-5000 nM)
Experimental: as §1

Row | FP EC50 [nM] | Binder
20 | 500 to 5000 | Ac-PQ[R6]ILD[MA]HVRRVWR-NH2 (staple 3-7) [FP0735c]
21 | 500 to 5000 | B1
22 | 500 to 5000 | B2
23 | 500 to 5000 | Ac-PQ[MC]ILD[R5]HVRRVWR-NH2 (staple 3-7) [FP0743c]
24 | 500 to 5000 | B3
25 | 500 to 5000 | Ac-PQ[S6]ILD[MA]HVRRVWR-NH2 (staple 3-7) [FP0736c]
26 | 500 to 5000 | Ac-PQ[MB(3)]ILD[S6]HVRRVWR-NH2 (staple 3-7) [FP0752c]
27 | 500 to 5000 | B4
28 | 500 to 5000 | B5
29 | 500 to 5000 | B6
30 | 500 to 5000 | Ac-PQ[R5]ILD[MB(3)]HVRRVWR-NH2 (staple 3-7) [FP0758c]
31 | 500 to 5000 | Ac-PQ[MB(3)]ILD[S5]HVRRVWR-NH2 (staple 3-7) [FP0751c]
32 | 500 to 5000 | Ac-PQ[S7]ILD[MA]HVRRVWR-NH2 (staple 3-7) [FP0738c]

Source: patent US11198713B2, “Agents modulating beta-catenin functions and methods thereof” (FOG PHARMACEUTICALS, INC., priority 2017, dated 2021)
